Key:
human proinsulin (human) = human proinsulin (human) (UniProt P01308); experiment: competitive RIA, PEP001-coated tubes, 125I-Tyr-C-peptide; serum E2 overloaded with 0.67 pmol/ml proinsulin; no AC1D4
des-31,32-proinsulin [1] = biological target: des-31,32-proinsulin (UniProt P01308); experiment: competitive RIA, PEP001-coated tubes, 125I-Tyr-C-peptide; serum E1 overloaded with 0.67 pmol/ml des-31,32-proinsulin; no AC1D4
des-64,65-proinsulin [2] = biological target: des-64,65-proinsulin (UniProt P01308); experiment: competitive RIA, PEP001-coated tubes, 125I-Tyr-C-peptide; serum E2 overloaded with 3.33 pmol/ml des-64,65-proinsulin; no AC1D4
des-31,32-proinsulin [3] = biological target: des-31,32-proinsulin (UniProt P01308); experiment: competitive RIA, PEP001-coated tubes, 125I-Tyr-C-peptide; serum E2 overloaded with 0.16 pmol/ml des-31,32-proinsulin; competitor AC1D4 20 µg/ml
des-31,32-proinsulin [4] = biological target: des-31,32-proinsulin (UniProt P01308); experiment: competitive RIA, PEP001-coated tubes, 125I-Tyr-C-peptide; serum E2 overloaded with 0.67 pmol/ml des-31,32-proinsulin; competitor AC1D4 20 µg/ml
des-64,65-proinsulin [5] = biological target: des-64,65-proinsulin (UniProt P01308); experiment: competitive RIA, PEP001-coated tubes, 125I-Tyr-C-peptide; serum E2 overloaded with 3.33 pmol/ml des-64,65-proinsulin; competitor AC1D4 20 µg/ml

## PEP001 anti-C-peptide monoclonal antibody
Human proinsulin (human)
  Increase after overload (%): 12%
des-31,32-proinsulin [1]
  Increase after overload (%): 38%
des-64,65-proinsulin [2]
  Increase after overload (%): 55%
des-31,32-proinsulin [3]
  Increase after overload (%): 0%
des-31,32-proinsulin [4]
  Increase after overload (%): 5%
des-64,65-proinsulin [5]
  Increase after overload (%): 69%

Source: patent publication US20050037448A1
